What was measured:
Shh pathway = Shh pathway expression (Gli1, N-Myc; Western Blot, real time Q-PCR) in GCP neurosphere cultures; assay type: cell-based, mouse; conditions: factor alone, FIG. 4
Protocol: (§1) After surgical resection from a mouse on the seventh day of postnatal life (P7) the cerebellum was mechanically shredded in a buffer containing HBSS, glucose and antibiotics, and DNase (at concentrations as defined above) and the individual cells thus obtained were counted and plated at a dilution of 16000 cells/cm^2 on a medium composed of DMEM-F12, glucose, Vitamin A-free B27, insulin, NALC, heparin, antibiotics (at concentrations as defined above) and SAG (200 nM) and EGF ([…]). On this medium the cells can be enriched and maintained for an unlimited time, after periodical dissociation of the spheres with Accutase® (2-3 times per week) and propagation by dilution (to prevent excessive growth and consequent death from nutrient deficiency and hypoxia). The reaction conditions were as described above.

GCP cells = experiment: Clonogenicity / long-term propagation of GCP neurosphere cultures; assay type: cell-based, mouse
Protocol: as §1

B1: EGF: Epidermal Growth Factor (protein, UniProt P01133 23-1207, looked up)
Pro-epidermal growth factor: PQHWSCPEGTLAGNGNSTCVGPAPFLIFSHGNSIFRIDTEGTNYEQLVVDAGVSVIMDFHYNEKRIYWVDLERQLLQRVFLNGSRQERVCNIEKNVSGMAINWINEEVIWSNQQEGIITVTDMKGNNSHILLSALKYPANVAVDPVERFIFWSSEVAGSLYRADLDGVGVKALLETSEKITAVSLDVLDKRLFWIQYNREGSNSLICSCDYDGGSVHISKHPTQHNLFAMSLFGDRIFYSTWKMKTIWIANKHTGKDMVRINLHSSFVPLGELKVVHPLAQPKAEDDTWEPEQKLCKLRKGNCSSTVCGQDLQSHLCMCAEGYALSRDRKYCEDVNECAFWNHGCTLGCKNTPGSYYCTCPVGFVLLPDGKRCHQLVSCPRNVSECSHDCVLTSEGPLCFCPEGSVLERDGKTCSGCSSPDNGGCSQLCVPLSPVSWECDCFPGYDLQLDEKSCAASGPQPFLLFANSQDIRHMHFDGTDYGTLLSQQMGMVYALDHDPVENKIYFAHTALKWIERANMDGSQRERLIEEGVDVPEGLAVDWIGRRFYWTDRGKSLIGRSDLNGKRSKIITKENISQPRGIAVHPMAKRLFWTDTGINPRIESSSLQGLGRLVIASSDLIWPSGITIDFLTDKLYWCDAKQSVIEMANLDGSKRRRLTQNDVGHPFAVAVFEDYVWFSDWAMPSVMRVNKRTGKDRVRLQGSMLKPSSLVVVHPLAKPGADPCLYQNGGCEHICKKRLGTAWCSCREGFMKASDGKTCLALDGHQLLAGGEVDLKNQVTPLDILSKTRVSEDNITESQHMLVAEIMVSDQDDCAPVGCSMYARCISEGEDATCQCLKGFAGDGKLCSDIDECEMGVPVCPPASSKCINTEGGYVCRCSEGYQGDGIHCLDIDECQLGEHSCGENASCTNTEGGYTCMCAGRLSEPGLICPDSTPPPHLREDDHHYSVRNSDSECPLSHDGYCLHDGVCMYIEALDKYACNCVVGYIGERCQYRDLKWWELRHAGHGQQQKVIVVAVCVVVLVMLLLLSLWGAHYYRTQKLLSKNPKNPYEESSRDVRSRRPADTEDGMSSCPQPWFVVIKEHQDLKNGGQPVAGEDGQAADGSMQPTSWRQEPQLCGMGTEQGCWIPVSSDKGSCPQVMERSFHMPSYGTQTLEGGVEKPHSLLSANPLWQQRALDPPHQMELTQ
modifications: Pro-epidermal growth factor
expression of markers typical of GCP (Shh pathway): does not express the markers typical of GCP
proliferative power of GCP cells (GCP cells): ensures its unlimited proliferative power

— US20220177834A1, “STABLE SYSTEM FOR THE IN VITRO CULTURE OF CEREBELLAR GRANULE CELL PRECURSORS (GCP), STABLE METHOD FOR THE IN VITRO CULTURE OF SAID CELLS AND USE OF SAID SYSTEM OR METHOD FOR IN VITRO CULTURE” (UNIVERSITA DEGLI STUDI Dl ROMA "LA SAPIENZA", priority 2019, published 2022)
